Literature values in PMC10108826.

Biological target: sIL-6R soluble ECD (Homo sapiens) (UniProt P08887)
UniProt P08887, sequence (P08887 20-355): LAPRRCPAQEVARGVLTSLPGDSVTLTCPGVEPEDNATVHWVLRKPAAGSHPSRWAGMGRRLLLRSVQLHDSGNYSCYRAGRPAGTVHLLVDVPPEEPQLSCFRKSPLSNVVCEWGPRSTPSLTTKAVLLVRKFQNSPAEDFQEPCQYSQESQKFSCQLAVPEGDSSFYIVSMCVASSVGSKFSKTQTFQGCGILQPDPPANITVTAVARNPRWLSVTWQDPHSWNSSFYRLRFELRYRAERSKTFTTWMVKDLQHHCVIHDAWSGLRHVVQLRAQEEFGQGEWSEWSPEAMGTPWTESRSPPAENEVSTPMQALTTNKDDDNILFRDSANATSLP

Kd: 1 nM
Substance: IL-6 (from UniProt P05231)
